# How the values were obtained:
# [1] = target: T1, canine FcRn complex (FcRn-α subunit and β-microglobulin) (canine, UniProt A0A8I3PFR8 25-347, biotin labeled through BirA enzymatic reaction in Example 5); assay: SPR (Biacore), FcRn amine-coupled on CM5, IgG as analyte, pH 6, 15 C
# [2] = target: T1, canine FcRn complex (FcRn-α subunit and …); assay: SPR (Biacore), FcRn amine-coupled on CM5, IgG as analyte, pH 7.2, 15 C
# T1 sequence (A0A8I3PFR8 entry or part of it, one chain of several): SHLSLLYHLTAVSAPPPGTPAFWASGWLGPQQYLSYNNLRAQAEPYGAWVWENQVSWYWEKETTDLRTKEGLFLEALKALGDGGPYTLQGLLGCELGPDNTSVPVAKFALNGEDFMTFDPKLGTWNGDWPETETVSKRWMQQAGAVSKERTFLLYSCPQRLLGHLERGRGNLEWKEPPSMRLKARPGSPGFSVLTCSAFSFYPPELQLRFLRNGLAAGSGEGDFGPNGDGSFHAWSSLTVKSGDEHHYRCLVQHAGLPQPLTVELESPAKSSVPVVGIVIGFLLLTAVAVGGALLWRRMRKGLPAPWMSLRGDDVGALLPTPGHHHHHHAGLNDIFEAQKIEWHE
Binder,Kd [1] [µM],Kd [2] [µM]
"anti-TGFβ antibody ZTS-4155, canine IgGB (65), N434H (antibody, See m9; also called mAb3 N434H) heavy: EVQLVQSGAEVKKPGASVKVSCKTSGYTFITYWMNWVRQAPGAGLDWMGQIFPASGSTNYNEMFEGRVTLTADTSTSTAYMELSSLRAGDIAVYYCARGDGNYALDAMDYWGQGTLVTASTTAPSVFPLAPSCGSTSGSTVALACLVSGYFPEPVTVSWNSGSLTSGVHTFPSVLQSSGLYSLSSMVTVPSSRWPSETFTCNVAHPASKTKVDKPVPKRENGRVPRPPDCPKCPAPEMLGGPSVFIFPPKPKDTLLIARTPEVTCVVVDLDPEDPEVQISWFVDGKQMQTAKTQPREEQFNGTYRVVSVLPIGHQDWLKGKQFTCKVNNKALPSPIERTISKARGQAHQPSVYVLPPSREELSKNTVSLTCLIKDFFPPDIDVEWQSNGQQEPESKYRTTPPQLDEDGSYFLYSKLSVDKSRWQRGDTFICAVMHEALHHHYTQESLSHSPGK VL: DIVMTQTPPSLSVSPRETASISCRASESVDSYGNSFMHWYLQKPGQSPQLLIYLASNLESGVSDRFSGSGSGTDFTLRISRVEANDTGVYYCQQNNEDPLTFGQ",0.0048,0.038
"anti-TGFβ antibody ZTS-4155, canine IgGB (65), N434M (antibody) chain 1: EVQLVQSGAEVKKPGASVKVSCKTSGYTFITYWMNWVRQAPGAGLDWMGQIFPASGSTNYNEMFEGRVTLTADTSTSTAYMELSSLRAGDIAVYYCARGDGNYALDAMDYWGQGTLVTVSSASTTAPSVFPLAPSCGSTSGSTVALACLVSGYFPEPVTVSWNSGSLTSGVHTFPSVLQSSGLYSLSSMVTVPSSRWPSETFTCNVAHPASKTKVDKPVPKRENGRVPRPPDCPKCPAPEMLGGPSVFIFPPKPKDTLLIARTPEVTCVVVDLDPEDPEVQISWFVDGKQMQTAKTQPREEQFNGTYRVVSVLPIGHQDWLKGKQFTCKVNNKALPSPIERTISKARGQAHQPSVYVLPPSREELSKNTVSLTCLIKDFFPPDIDVEWQSNGQQEPESKYRTTPPQLDEDGSYFLYSKLSVDKSRWQRGDTFICAVMHEALHMHYTQESLSHSPGK chain 2: DIVMTQTPPSLSVSPRETASISCRASESVDSYGNSFMHWYLQKPGQSPQLLIYLASNLESGVSDRFSGSGSGTDFTLRISRVEANDTGVYYCQQNNEDPLTFGQGTKLEIKRNDAQPAVYLFQPSPDQLHTGSASVVCLLNSFYPKDINVKWKVDGVIQDTGIQESVTEQDKDSTYSLSSTLTMSSTEYLSHELYSCEITHKSLPSTLIKSFQRSEC",0.0188,0.011
"anti-TGFβ antibody ZTS-4155, canine IgGB (65), N434T (antibody) chain 1: EVQLVQSGAEVKKPGASVKVSCKTSGYTFITYWMNWVRQAPGAGLDWMGQIFPASGSTNYNEMFEGRVTLTADTSTSTAYMELSSLRAGDIAVYYCARGDGNYALDAMDYWGQGTLVTVSSASTTAPSVFPLAPSCGSTSGSTVALACLVSGYFPEPVTVSWNSGSLTSGVHTFPSVLQSSGLYSLSSMVTVPSSRWPSETFTCNVAHPASKTKVDKPVPKRENGRVPRPPDCPKCPAPEMLGGPSVFIFPPKPKDTLLIARTPEVTCVVVDLDPEDPEVQISWFVDGKQMQTAKTQPREEQFNGTYRVVSVLPIGHQDWLKGKQFTCKVNNKALPSPIERTISKARGQAHQPSVYVLPPSREELSKNTVSLTCLIKDFFPPDIDVEWQSNGQQEPESKYRTTPPQLDEDGSYFLYSKLSVDKSRWQRGDTFICAVMHEALHTHYTQESLSHSPGK chain 2: DIVMTQTPPSLSVSPRETASISCRASESVDSYGNSFMHWYLQKPGQSPQLLIYLASNLESGVSDRFSGSGSGTDFTLRISRVEANDTGVYYCQQNNEDPLTFGQGTKLEIKRNDAQPAVYLFQPSPDQLHTGSASVVCLLNSFYPKDINVKWKVDGVIQDTGIQESVTEQDKDSTYSLSSTLTMSSTEYLSHELYSCEITHKSLPSTLIKSFQRSEC",0.0166,0.406
"anti-TGFβ antibody ZTS-4155, canine IgGB (65), N434Q (antibody) chain 1: EVQLVQSGAEVKKPGASVKVSCKTSGYTFITYWMNWVRQAPGAGLDWMGQIFPASGSTNYNEMFEGRVTLTADTSTSTAYMELSSLRAGDIAVYYCARGDGNYALDAMDYWGQGTLVTVSSASTTAPSVFPLAPSCGSTSGSTVALACLVSGYFPEPVTVSWNSGSLTSGVHTFPSVLQSSGLYSLSSMVTVPSSRWPSETFTCNVAHPASKTKVDKPVPKRENGRVPRPPDCPKCPAPEMLGGPSVFIFPPKPKDTLLIARTPEVTCVVVDLDPEDPEVQISWFVDGKQMQTAKTQPREEQFNGTYRVVSVLPIGHQDWLKGKQFTCKVNNKALPSPIERTISKARGQAHQPSVYVLPPSREELSKNTVSLTCLIKDFFPPDIDVEWQSNGQQEPESKYRTTPPQLDEDGSYFLYSKLSVDKSRWQRGDTFICAVMHEALHQHYTQESLSHSPGK chain 2: DIVMTQTPPSLSVSPRETASISCRASESVDSYGNSFMHWYLQKPGQSPQLLIYLASNLESGVSDRFSGSGSGTDFTLRISRVEANDTGVYYCQQNNEDPLTFGQGTKLEIKRNDAQPAVYLFQPSPDQLHTGSASVVCLLNSFYPKDINVKWKVDGVIQDTGIQESVTEQDKDSTYSLSSTLTMSSTEYLSHELYSCEITHKSLPSTLIKSFQRSEC",0.0118,0.0502
"anti-TGFβ antibody ZTS-4155, canine IgGB (65), N434W (antibody) chain 1: EVQLVQSGAEVKKPGASVKVSCKTSGYTFITYWMNWVRQAPGAGLDWMGQIFPASGSTNYNEMFEGRVTLTADTSTSTAYMELSSLRAGDIAVYYCARGDGNYALDAMDYWGQGTLVTVSSASTTAPSVFPLAPSCGSTSGSTVALACLVSGYFPEPVTVSWNSGSLTSGVHTFPSVLQSSGLYSLSSMVTVPSSRWPSETFTCNVAHPASKTKVDKPVPKRENGRVPRPPDCPKCPAPEMLGGPSVFIFPPKPKDTLLIARTPEVTCVVVDLDPEDPEVQISWFVDGKQMQTAKTQPREEQFNGTYRVVSVLPIGHQDWLKGKQFTCKVNNKALPSPIERTISKARGQAHQPSVYVLPPSREELSKNTVSLTCLIKDFFPPDIDVEWQSNGQQEPESKYRTTPPQLDEDGSYFLYSKLSVDKSRWQRGDTFICAVMHEALHWHYTQESLSHSPGK chain 2: DIVMTQTPPSLSVSPRETASISCRASESVDSYGNSFMHWYLQKPGQSPQLLIYLASNLESGVSDRFSGSGSGTDFTLRISRVEANDTGVYYCQQNNEDPLTFGQGTKLEIKRNDAQPAVYLFQPSPDQLHTGSASVVCLLNSFYPKDINVKWKVDGVIQDTGIQESVTEQDKDSTYSLSSTLTMSSTEYLSHELYSCEITHKSLPSTLIKSFQRSEC",0.00211,0.162
"anti-TGFβ antibody ZTS-4155, canine IgGB (65), N434R (antibody) chain 1: EVQLVQSGAEVKKPGASVKVSCKTSGYTFITYWMNWVRQAPGAGLDWMGQIFPASGSTNYNEMFEGRVTLTADTSTSTAYMELSSLRAGDIAVYYCARGDGNYALDAMDYWGQGTLVTVSSASTTAPSVFPLAPSCGSTSGSTVALACLVSGYFPEPVTVSWNSGSLTSGVHTFPSVLQSSGLYSLSSMVTVPSSRWPSETFTCNVAHPASKTKVDKPVPKRENGRVPRPPDCPKCPAPEMLGGPSVFIFPPKPKDTLLIARTPEVTCVVVDLDPEDPEVQISWFVDGKQMQTAKTQPREEQFNGTYRVVSVLPIGHQDWLKGKQFTCKVNNKALPSPIERTISKARGQAHQPSVYVLPPSREELSKNTVSLTCLIKDFFPPDIDVEWQSNGQQEPESKYRTTPPQLDEDGSYFLYSKLSVDKSRWQRGDTFICAVMHEALHRHYTQESLSHSPGK chain 2: DIVMTQTPPSLSVSPRETASISCRASESVDSYGNSFMHWYLQKPGQSPQLLIYLASNLESGVSDRFSGSGSGTDFTLRISRVEANDTGVYYCQQNNEDPLTFGQGTKLEIKRNDAQPAVYLFQPSPDQLHTGSASVVCLLNSFYPKDINVKWKVDGVIQDTGIQESVTEQDKDSTYSLSSTLTMSSTEYLSHELYSCEITHKSLPSTLIKSFQRSEC",0.0027,0.285
"anti-TGFβ antibody ZTS-4155, canine IgGB (65), N434V (antibody) chain 1: EVQLVQSGAEVKKPGASVKVSCKTSGYTFITYWMNWVRQAPGAGLDWMGQIFPASGSTNYNEMFEGRVTLTADTSTSTAYMELSSLRAGDIAVYYCARGDGNYALDAMDYWGQGTLVTVSSASTTAPSVFPLAPSCGSTSGSTVALACLVSGYFPEPVTVSWNSGSLTSGVHTFPSVLQSSGLYSLSSMVTVPSSRWPSETFTCNVAHPASKTKVDKPVPKRENGRVPRPPDCPKCPAPEMLGGPSVFIFPPKPKDTLLIARTPEVTCVVVDLDPEDPEVQISWFVDGKQMQTAKTQPREEQFNGTYRVVSVLPIGHQDWLKGKQFTCKVNNKALPSPIERTISKARGQAHQPSVYVLPPSREELSKNTVSLTCLIKDFFPPDIDVEWQSNGQQEPESKYRTTPPQLDEDGSYFLYSKLSVDKSRWQRGDTFICAVMHEALHVHYTQESLSHSPGK chain 2: DIVMTQTPPSLSVSPRETASISCRASESVDSYGNSFMHWYLQKPGQSPQLLIYLASNLESGVSDRFSGSGSGTDFTLRISRVEANDTGVYYCQQNNEDPLTFGQGTKLEIKRNDAQPAVYLFQPSPDQLHTGSASVVCLLNSFYPKDINVKWKVDGVIQDTGIQESVTEQDKDSTYSLSSTLTMSSTEYLSHELYSCEITHKSLPSTLIKSFQRSEC",0.0136,0.00619
"anti-TGFβ antibody ZTS-4155, canine IgGB (65), N434C (antibody) chain 1: EVQLVQSGAEVKKPGASVKVSCKTSGYTFITYWMNWVRQAPGAGLDWMGQIFPASGSTNYNEMFEGRVTLTADTSTSTAYMELSSLRAGDIAVYYCARGDGNYALDAMDYWGQGTLVTVSSASTTAPSVFPLAPSCGSTSGSTVALACLVSGYFPEPVTVSWNSGSLTSGVHTFPSVLQSSGLYSLSSMVTVPSSRWPSETFTCNVAHPASKTKVDKPVPKRENGRVPRPPDCPKCPAPEMLGGPSVFIFPPKPKDTLLIARTPEVTCVVVDLDPEDPEVQISWFVDGKQMQTAKTQPREEQFNGTYRVVSVLPIGHQDWLKGKQFTCKVNNKALPSPIERTISKARGQAHQPSVYVLPPSREELSKNTVSLTCLIKDFFPPDIDVEWQSNGQQEPESKYRTTPPQLDEDGSYFLYSKLSVDKSRWQRGDTFICAVMHEALHCHYTQESLSHSPGK chain 2: DIVMTQTPPSLSVSPRETASISCRASESVDSYGNSFMHWYLQKPGQSPQLLIYLASNLESGVSDRFSGSGSGTDFTLRISRVEANDTGVYYCQQNNEDPLTFGQGTKLEIKRNDAQPAVYLFQPSPDQLHTGSASVVCLLNSFYPKDINVKWKVDGVIQDTGIQESVTEQDKDSTYSLSSTLTMSSTEYLSHELYSCEITHKSLPSTLIKSFQRSEC",–,0.27

# Source: patent publication US20260193334A1 (ZOETIS SERVICES, published 2026)
